Measurements reported in paper doi:10.1101/2023.05.09.540094.

Columns and labels:
[1] = biological target: human 26S proteasome (human | human (endogenous in HEK293)) (UniProt O00487)
[2] = biological target: human 26S proteasome (human | human (endogenous in HEK293)) (UniProt O00487); remark: listed apart in the source
[3] = biological target: human 26S proteasome (human | human (endogenous in HEK293)) (UniProt O00487); assay: single-molecule TIRF microscopy

Binder | increase of the initial (phase I) degradation rate of ubiquitylated cycB-cpGFP [1] | increase of the late (phase II) degradation rate of ubiquitylated cycB-cpGFP [1] | stimulation of peptide hydrolysis of purified 26S proteasome [2] | dwell-time constant, first (short-binding) exponential mode [3] | dwell-time constant, second (long-binding) exponential mode [3]
ZFAND5/ZNF216, recombinant wild type (natural protein) MAQETNQTPGPMLCSTGCGFYGNPRTNGMCSVCYKEHLQRQQNSGRMSPMGTASGSNSPTSDSASVQRADTSLNNCEGAAGSTSEKSRNVPVAALPVTQQMTEMSISREDKITTPKTEVSEPVVTQPSPSVSQPSTSQSEEKAPELPKPKKNRCFMCRKKVGLTGFDCRCGNLFCGLHRYSDKHNCPYDYKAEAAAKIRKENPVVVAEKIQRI | 24% | 71% | < 10 fold |  | 
His6-SNAP-ZFAND5wt (natural protein, SNAP tag labelled with SNAP-Surface 649 (fluorescent form) or with SNAP-Biotin (immobilised form)) MAQETNQTPGPMLCSTGCGFYGNPRTNGMCSVCYKEHLQRQQNSGRMSPMGTASGSNSPTSDSASVQRADTSLNNCEGAAGSTSEKSRNVPVAALPVTQQMTEMSISREDKITTPKTEVSEPVVTQPSPSVSQPSTSQSEEKAPELPKPKKNRCFMCRKKVGLTGFDCRCGNLFCGLHRYSDKHNCPYDYKAEAAAKIRKENPVVVAEKIQRI |  |  |  | 50 ms | 614 ms
